In series [1] the target is Pfk-I (DAS+4), N-terminal 6x-His-tagged Pfk-I with the modified DAS+4 tag at the C terminus (UniProt P0A796).
Series [2] concerns the target Pfk-I (LAA), N-terminal 6x-His-tagged Pfk-I with the native ssrA tag (LAA) appended to the C terminus (UniProt P0A796).
Series [3] has as its target Pfk-I (untagged), N-terminal 6x-His-tagged phosphofructokinase-I without C-terminal degradation tag (UniProt P0A796).

Sequence of Pfk-I (LAA), N-terminal 6x-His-tagged Pfk-I with the native ssrA tag (LAA) appended to the C terminus (P0A796 other isoform, or with tags, fused parts or gaps): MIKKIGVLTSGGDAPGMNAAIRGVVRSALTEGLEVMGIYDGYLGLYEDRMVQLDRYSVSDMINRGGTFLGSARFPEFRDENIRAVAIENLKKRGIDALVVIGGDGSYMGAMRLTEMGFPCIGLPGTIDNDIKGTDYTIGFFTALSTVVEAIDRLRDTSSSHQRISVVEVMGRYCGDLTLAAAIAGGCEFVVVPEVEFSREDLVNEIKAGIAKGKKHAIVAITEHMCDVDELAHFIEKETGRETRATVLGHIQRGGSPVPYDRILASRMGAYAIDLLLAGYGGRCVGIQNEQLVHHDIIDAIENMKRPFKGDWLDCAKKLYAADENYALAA
Sequence of Pfk-I (untagged), N-terminal 6x-His-tagged phosphofructokinase-I without C-terminal degradation tag (P0A796 whole entry): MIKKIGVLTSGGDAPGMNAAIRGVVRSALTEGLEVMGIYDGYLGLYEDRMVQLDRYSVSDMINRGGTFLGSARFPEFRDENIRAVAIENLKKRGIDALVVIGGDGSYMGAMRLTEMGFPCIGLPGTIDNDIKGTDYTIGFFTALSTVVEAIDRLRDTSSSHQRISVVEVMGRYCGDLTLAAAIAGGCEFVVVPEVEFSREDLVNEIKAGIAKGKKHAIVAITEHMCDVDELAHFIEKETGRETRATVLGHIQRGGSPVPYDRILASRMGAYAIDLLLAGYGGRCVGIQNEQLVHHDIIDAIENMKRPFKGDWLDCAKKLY
Sequence of Pfk-I (DAS+4), N-terminal 6x-His-tagged Pfk-I with the modified DAS+4 tag at the C terminus (P0A796 other isoform, or with tags, fused parts or gaps): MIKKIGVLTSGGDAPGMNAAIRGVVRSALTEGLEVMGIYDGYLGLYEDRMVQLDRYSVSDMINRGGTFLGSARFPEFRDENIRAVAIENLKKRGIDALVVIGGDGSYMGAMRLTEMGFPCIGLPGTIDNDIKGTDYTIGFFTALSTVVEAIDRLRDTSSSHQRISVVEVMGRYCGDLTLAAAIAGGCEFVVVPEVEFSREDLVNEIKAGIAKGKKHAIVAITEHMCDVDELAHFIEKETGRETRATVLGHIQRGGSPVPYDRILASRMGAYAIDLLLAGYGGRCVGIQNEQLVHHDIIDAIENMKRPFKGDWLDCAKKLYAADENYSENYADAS

In the case of “ClpXP protease (0.3 µM ClpX6 and 0.9 µM ClpP14)”, in series [1], the “in vitro degradation by ClpXP with ATP, SDS-PAGE time course, no SspB” value is “no significant degradation was observed over the 60 minute period”. The “in vitro degradation by ClpXP with ATP, SDS-PAGE time course” value in series [2] is given as “shows almost complete disappearance by 20 minutes”; in series [3], “does not show significant degradation during the 60 minute incubation with ClpXP”.

The values are drawn from patent publication US20170130210.
